Reference: patent publication US6051217, “Therapeutic uses of interleukin-3 (IL-3) multiple mutation polypeptides” (G. D. Searle & Co., dated 2000)

B1: native human interleukin-3, (1-133)hIL-3 (ligand)
chain: MAPMTQTTSLKTSWVNCSNMIDEIITHLKQPPLPLLDFNNLNGEDQDILMENNLRRPNLEAFNRAVKSLQNASAIESILKNLLPCLPLATAAPTRHPIHIKDGDWNEFRRKLTFYLKTLENAQAQQTTLSLAIF
B2: pMON13429 polypeptide (ligand)
chain: MANCSIIIDEIIHHLKRPPNPLLDPNNLNSEDVDILDERNLRTPNLLAFVRAVKHLENASGIEAILRNLQPCLPSATAAPSRHPIIIKAGDWQEFREKLTFYLVTLEQAQEQQ
B3: pMON13440 polypeptide (ligand)
chain: MANCSIMIDEAIHHLKIPPNPSLDSANLNSEDVSILMERNLRTPNLLAFVRAVKHLENASGIEPILRNLQPCLPSATAAPSRTPIIIKAGDWQEFREKLTFYLVTLEQAQEQQ
B4: pMON13451 polypeptide (ligand)
chain: MANCSIILDEAIHHLKIPPNPSLDSANLNSEDVSILMERNLRTPNLLAFVRAVKHLENASGIEPILRNLQPCLPSATAAPSRTPIIIKAGDWQEFREKLTFYLVTLEQAQEQQ
B5: pMON13459 polypeptide (ligand)
chain: MANCSIMIDELIHHLKIPPNPSLDSANLNSEDVSILMERNLRTPNLLAFVRAVKHLENASGIEPILSNLQPCVPYWTAPPSRTPITIKAGDWQEFRLKLQFYLSTLEQAQEQQ
B6: pMON13467 polypeptide (ligand)
chain: MANCSIMIDELIHHLKIPPNPSLDSANLNSEDVSILMERNLRTPNLLAFVRAVKHLENASGIEAILRNLQPCLPSATAAPSRHPIIIKAGDWQEFRLKLQFYLSSLEQAQEQQ
B7: pMON13428 polypeptide (ligand)
chain: MANCSIMIDEIIHHLKRPPNPLLDPNNLNSEDMDILMERNLRTPNLLAFVRAVKHLENASGIEPILSNLQPCVPYWTAPPSRTPITIKAGDWQEFRLKLQFYLSTLEQAQEQQ
B8: pMON13446 polypeptide (ligand)
chain: MAYPETDYKDDDDKNCSIMIDEIIHHLKRPPAPLLDPNNLNAEDVDILMERNLRLPNLESFVRAVKNLENASGIEAILRNLQPCLPSATAAPSRHPIIIKAGDWQEFREKLTFYLVTLEQAQEQQ
B9: pMON13390 polypeptide (ligand)
chain: MAYPETDYKDDDDKNCSIMIDEIIHHLKRPPNPLLDPNNLNSEDMDILMERNLRTPNLLAFVRAVKHLENASGIEAILRNLQPCLPSATAAPSRHPIIIKAGDWQEFREKLTFYLVTLEQAQEQQ

Tests used:
hIL-3 receptor [1] = target: T1, hIL-3 receptor (human, UniProt P26951); assay: cell-based or functional assay
T1 sequence: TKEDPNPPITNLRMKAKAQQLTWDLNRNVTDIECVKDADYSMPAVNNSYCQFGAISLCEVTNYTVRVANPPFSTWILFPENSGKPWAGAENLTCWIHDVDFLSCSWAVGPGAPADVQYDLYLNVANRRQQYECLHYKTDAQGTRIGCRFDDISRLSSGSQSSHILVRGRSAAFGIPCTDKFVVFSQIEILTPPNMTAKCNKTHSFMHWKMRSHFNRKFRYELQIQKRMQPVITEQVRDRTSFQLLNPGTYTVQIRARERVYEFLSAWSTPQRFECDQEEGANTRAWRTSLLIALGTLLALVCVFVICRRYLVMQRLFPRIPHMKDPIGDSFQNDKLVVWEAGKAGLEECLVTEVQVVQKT

hIL-3 receptor [2] = target: T1, hIL-3 receptor; assay: cell-based or functional assay; remark: listed apart in the source

Binder | EC50, AML 193 cell proliferation assay (hIL-3 receptor [1]) [nM] | Relative Biological Activity (AML 193 proliferation) (hIL-3 receptor [2])
B1 | 0.0302 | 1 EC50 (1-133)hIL-3 / EC50 mutant
B2 |  | > 0.0002 EC50 (1-133)hIL-3 / EC50 mutant
B3 |  | 9 EC50 (1-133)hIL-3 / EC50 mutant
B4 |  | 0.1 EC50 (1-133)hIL-3 / EC50 mutant
B5 |  | 0.003 EC50 (1-133)hIL-3 / EC50 mutant
B6 |  | 0.16 EC50 (1-133)hIL-3 / EC50 mutant
B7 |  | 0.008 EC50 (1-133)hIL-3 / EC50 mutant
B8 |  | 21.5 EC50 (1-133)hIL-3 / EC50 mutant
B9 |  | 20 EC50 (1-133)hIL-3 / EC50 mutant
